Data on eight molecules can be found in paper PMC4366684 (The FEBS journal, 2013).

Where a chain is given by its changes, count along the chain named. In names and notes the source's numbering stands.

In data set [1] the target is T1, low-specificity Escherichia coli L-threonine aldolase (eTA) (Escherichia coli, UniProt P75823). In words: X-ray crystal structure, […] Å. The format is binding. To be noted: covalent, internal aldimine with Lys197; 1:1 per subunit.
Data set [2] addresses T1, low-specificity Escherichia coli L-threonine aldolase (eTA). In words: X-ray crystal structure, […] Å, co-crystallised with L-serine. The class given is binding. The note with it: covalent, external aldimine with PLP; partial occupancy.
Substrate in data set [3]: C[C@@H](O)[C@H](N)C(=O)O
In words: purified protein. The format is biochemical, Escherichia coli. The note with it: 20 mM potassium phosphate, pH 7.0, 30 °C, retro-aldol cleavage.

Substrate in data set [4]: C[C@H](O)[C@H](N)C(=O)O
In words: purified protein. The format is biochemical, Escherichia coli. The note with it: 20 mM potassium phosphate, pH 7.0, 30 °C, retro-aldol cleavage.

With `Cc1ncc(COP(=O)(O)O)c(C=O)c1O` [PLP], the “X-ray crystal structure, 2.2 Å” value in data set [1] was “PLP bound at their interface, forming a Schiff base (internal aldimine) with the conserved Lys197”.
Regarding `NCC(=O)O` [glycine], in data set [2], the “X-ray crystal structure, 2.2 Å, co-crystallised with L-serine” value is given as “external aldimine with glycine (in which the C4’ is bound to the amino group”.

B1: low-specificity Escherichia coli L-threonine aldolase (eTA) (Escherichia coli K-12) (protein)
chain: MIDLRSDTVTRPSRAMLEAMMAAPVGDDVYGDDPTVNALQDYAAELSGKEAAIFLPTGTQANLVALLSHCERGEEYIVGQAAHNYLFEAGGAAVLGSIQPQPIDAAADGTLPLDKVAMKIKPDDIHFARTKLLSLENTHNGKVLPREYLKEAWEFTRERNLALHVDGARIFNAVVAYGCELKEITQYCDSFTICLSKGLGTPVGSLLVGNRDYIKRAIRWRKMTGGGMRQSGILAAAGIYALKNNVARLQEDHDNAAWMAEQLREAGADVMRQDTNMLFVRVGEENAAALGEYMKARNVLINASPIVRLVTHLDVSREQLAEVAAHWRAFLAR
By Km is commonly meant the substrate concentration at which the rate is half of its maximum. For orientation: kcat means the number of substrate molecules converted per active site and unit of time at saturation. What is called kcat/Km is the turnover number divided by the Michaelis constant. As for B1, in data set [3], the Michaelis constant (Km) amounted to 19400 µM, the turnover number (kcat) turned out to be 1.87 s⁻¹ and the kcat/Km is 96.7 M⁻¹ s⁻¹. Besides, in data set [4], the Michaelis constant (Km) was 240 µM, the kcat turned out to be 3.55 s⁻¹ and the kcat/Km turned out to be 14800 M⁻¹ s⁻¹.

B2: low-specificity Escherichia coli L-threonine aldolase (eTA) (Escherichia coli K-12; F87D) (protein)
chain: B1 chain with F87D
In the case of B2, in data set [4], the Km turned out to be 410 µM, the catalytic constant (kcat) turned out to be 1.95 s⁻¹ and the catalytic efficiency (kcat/Km) was found to be 4750 M⁻¹ s⁻¹.

B3: low-specificity Escherichia coli L-threonine aldolase (eTA) (Escherichia coli K-12; H126F) (protein)
chain: B1 chain with H126F
As for B3, in data set [4], the Michaelis constant (Km) came to 200 µM, the catalytic constant (kcat) stood at 9.02 s⁻¹ and the specificity constant (kcat/Km) was determined as 45100 M⁻¹ s⁻¹.

B4: low-specificity Escherichia coli L-threonine aldolase (eTA) (Escherichia coli K-12; K222A) (protein)
chain: B1 chain with K222A
On to B4, for which, in data set [4], the Km came to 1200 µM, the catalytic constant (kcat) amounted to 1.33 s⁻¹ and the kcat/Km came out at 1120 M⁻¹ s⁻¹.

B5: low-specificity Escherichia coli L-threonine aldolase (eTA) (Escherichia coli K-12; H126N) (protein)
chain: B1 chain with H126N
B5: in data set [4], the Michaelis-Menten constant (Km) amounted to 960 µM, the kcat worked out at 7.82 s⁻¹ and the catalytic efficiency (kcat/Km) stood at 8130 M⁻¹ s⁻¹.

B6: low-specificity Escherichia coli L-threonine aldolase (eTA) (Escherichia coli K-12; F87A) (protein)
chain: B1 chain with F87A
In the case of B6, in data set [4], the Km worked out at 310 µM, the catalytic constant (kcat) turned out to be 2.67 s⁻¹ and the catalytic efficiency (kcat/Km) worked out at 8600 M⁻¹ s⁻¹.
